T1: IKKα(h) (human, UniProt O15111 1-745)
T1 sequence (looked up): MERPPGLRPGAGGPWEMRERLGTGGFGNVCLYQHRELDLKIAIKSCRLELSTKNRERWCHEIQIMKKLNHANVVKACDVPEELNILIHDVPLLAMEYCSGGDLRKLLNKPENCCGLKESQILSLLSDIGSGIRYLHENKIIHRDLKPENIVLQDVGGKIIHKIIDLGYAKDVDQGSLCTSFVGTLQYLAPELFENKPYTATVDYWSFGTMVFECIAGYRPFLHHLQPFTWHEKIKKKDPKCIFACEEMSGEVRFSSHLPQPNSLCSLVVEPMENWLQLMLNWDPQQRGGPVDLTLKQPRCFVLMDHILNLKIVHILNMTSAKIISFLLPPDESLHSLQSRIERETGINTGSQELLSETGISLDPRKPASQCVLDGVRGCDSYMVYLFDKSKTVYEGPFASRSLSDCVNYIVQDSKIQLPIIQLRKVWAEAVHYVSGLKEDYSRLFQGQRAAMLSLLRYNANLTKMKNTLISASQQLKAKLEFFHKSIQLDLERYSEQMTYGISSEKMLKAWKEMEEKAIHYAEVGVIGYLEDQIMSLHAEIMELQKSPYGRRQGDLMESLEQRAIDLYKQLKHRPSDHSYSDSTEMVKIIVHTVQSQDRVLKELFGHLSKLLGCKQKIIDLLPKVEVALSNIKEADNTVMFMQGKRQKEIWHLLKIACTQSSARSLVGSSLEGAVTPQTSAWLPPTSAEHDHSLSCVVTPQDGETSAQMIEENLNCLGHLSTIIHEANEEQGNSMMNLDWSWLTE

T2: BrSK2(h) (human, UniProt Q8IWQ3 1-736, limits assumed)
T2 sequence (looked up): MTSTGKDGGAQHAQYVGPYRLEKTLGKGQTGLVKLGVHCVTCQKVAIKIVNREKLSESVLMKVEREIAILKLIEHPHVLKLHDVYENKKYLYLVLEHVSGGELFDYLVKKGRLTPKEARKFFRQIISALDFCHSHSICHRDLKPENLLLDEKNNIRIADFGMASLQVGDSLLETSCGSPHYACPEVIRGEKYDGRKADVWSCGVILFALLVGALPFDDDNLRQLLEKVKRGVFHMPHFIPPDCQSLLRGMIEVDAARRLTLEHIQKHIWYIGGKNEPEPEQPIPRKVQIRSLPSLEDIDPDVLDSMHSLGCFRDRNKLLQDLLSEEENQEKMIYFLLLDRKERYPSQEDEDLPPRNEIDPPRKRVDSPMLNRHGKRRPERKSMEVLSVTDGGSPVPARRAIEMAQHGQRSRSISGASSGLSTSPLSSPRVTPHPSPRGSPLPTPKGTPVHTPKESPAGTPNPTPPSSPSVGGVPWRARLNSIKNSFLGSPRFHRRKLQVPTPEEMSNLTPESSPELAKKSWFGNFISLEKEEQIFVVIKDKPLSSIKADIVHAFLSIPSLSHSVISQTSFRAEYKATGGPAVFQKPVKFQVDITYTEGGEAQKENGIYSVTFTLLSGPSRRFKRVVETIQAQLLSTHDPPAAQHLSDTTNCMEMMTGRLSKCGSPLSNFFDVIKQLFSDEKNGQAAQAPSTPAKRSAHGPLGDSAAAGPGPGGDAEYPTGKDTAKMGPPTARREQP

T3: Txk(h) (human, UniProt P42681 1-527, limits assumed)
T3 sequence (looked up): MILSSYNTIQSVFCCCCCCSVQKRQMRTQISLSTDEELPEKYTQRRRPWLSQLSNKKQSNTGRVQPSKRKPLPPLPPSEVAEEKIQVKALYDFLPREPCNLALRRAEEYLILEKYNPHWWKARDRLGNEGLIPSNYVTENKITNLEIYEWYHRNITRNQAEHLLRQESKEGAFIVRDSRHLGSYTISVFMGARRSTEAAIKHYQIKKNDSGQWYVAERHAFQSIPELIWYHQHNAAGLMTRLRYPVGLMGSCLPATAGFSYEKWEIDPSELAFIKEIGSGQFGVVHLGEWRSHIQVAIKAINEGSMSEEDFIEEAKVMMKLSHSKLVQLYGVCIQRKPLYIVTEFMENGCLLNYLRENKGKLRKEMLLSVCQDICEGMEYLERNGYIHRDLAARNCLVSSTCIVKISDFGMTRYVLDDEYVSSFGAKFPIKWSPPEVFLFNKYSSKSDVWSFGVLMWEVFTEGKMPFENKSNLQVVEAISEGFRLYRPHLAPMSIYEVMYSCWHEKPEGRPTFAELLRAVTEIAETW

T4: ULK3(h) (human, UniProt Q6PHR2 1-472, limits assumed)
T4 sequence (looked up): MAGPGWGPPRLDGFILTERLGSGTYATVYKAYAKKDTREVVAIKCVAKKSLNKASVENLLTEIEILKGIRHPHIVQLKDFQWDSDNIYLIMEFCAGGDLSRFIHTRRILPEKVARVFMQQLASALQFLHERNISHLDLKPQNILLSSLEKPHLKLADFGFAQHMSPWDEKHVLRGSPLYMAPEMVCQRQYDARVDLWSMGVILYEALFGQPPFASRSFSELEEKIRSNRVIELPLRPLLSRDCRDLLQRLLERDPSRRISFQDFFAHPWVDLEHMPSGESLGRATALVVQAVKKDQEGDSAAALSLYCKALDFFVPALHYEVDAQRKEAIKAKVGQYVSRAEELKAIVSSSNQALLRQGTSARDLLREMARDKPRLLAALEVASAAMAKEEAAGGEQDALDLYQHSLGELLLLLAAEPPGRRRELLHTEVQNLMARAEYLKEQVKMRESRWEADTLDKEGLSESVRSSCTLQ


How the values were obtained:
Assay in all cases: cell-based or functional assay
Abl(Y253F)(h) = Abl(Y253F)(h) (human, UniProt P00519 27-1130, limits assumed)
Chain of Abl(Y253F)(h) (P00519 27-1130 Y253F limits assumed): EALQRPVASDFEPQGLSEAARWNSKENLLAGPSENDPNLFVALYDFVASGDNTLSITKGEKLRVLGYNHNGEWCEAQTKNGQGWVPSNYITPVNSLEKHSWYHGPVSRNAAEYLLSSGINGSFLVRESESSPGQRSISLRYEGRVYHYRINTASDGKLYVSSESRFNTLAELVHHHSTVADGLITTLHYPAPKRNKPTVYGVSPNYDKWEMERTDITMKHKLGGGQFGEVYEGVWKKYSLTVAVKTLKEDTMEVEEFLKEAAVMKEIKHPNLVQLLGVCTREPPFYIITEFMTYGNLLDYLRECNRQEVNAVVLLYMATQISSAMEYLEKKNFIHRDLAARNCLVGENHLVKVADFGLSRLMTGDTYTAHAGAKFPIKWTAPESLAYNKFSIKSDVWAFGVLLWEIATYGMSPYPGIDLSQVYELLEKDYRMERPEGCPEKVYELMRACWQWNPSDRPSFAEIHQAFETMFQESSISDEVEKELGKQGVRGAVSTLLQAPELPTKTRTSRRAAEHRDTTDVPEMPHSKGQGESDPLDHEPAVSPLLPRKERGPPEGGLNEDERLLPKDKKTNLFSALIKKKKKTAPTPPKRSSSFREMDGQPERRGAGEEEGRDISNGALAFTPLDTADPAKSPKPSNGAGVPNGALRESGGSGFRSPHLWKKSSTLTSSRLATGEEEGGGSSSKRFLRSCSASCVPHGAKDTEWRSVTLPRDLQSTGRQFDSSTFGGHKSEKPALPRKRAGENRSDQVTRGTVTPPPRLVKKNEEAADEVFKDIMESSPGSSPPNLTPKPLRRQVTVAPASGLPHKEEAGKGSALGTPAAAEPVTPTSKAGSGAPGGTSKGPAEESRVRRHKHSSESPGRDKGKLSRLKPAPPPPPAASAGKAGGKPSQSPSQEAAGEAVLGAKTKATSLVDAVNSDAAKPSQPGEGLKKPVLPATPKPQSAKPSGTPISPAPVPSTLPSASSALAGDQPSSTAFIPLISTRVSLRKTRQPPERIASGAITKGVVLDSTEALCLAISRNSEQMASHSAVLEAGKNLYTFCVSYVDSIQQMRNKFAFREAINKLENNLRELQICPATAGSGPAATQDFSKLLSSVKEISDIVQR

IKKα(h) = biological target: T1, IKKα(h)
mTOR(h) = mTOR(h) (human, UniProt P42345 1362-2549)
Chain of mTOR(h) (P42345 1362-2549 limits assumed): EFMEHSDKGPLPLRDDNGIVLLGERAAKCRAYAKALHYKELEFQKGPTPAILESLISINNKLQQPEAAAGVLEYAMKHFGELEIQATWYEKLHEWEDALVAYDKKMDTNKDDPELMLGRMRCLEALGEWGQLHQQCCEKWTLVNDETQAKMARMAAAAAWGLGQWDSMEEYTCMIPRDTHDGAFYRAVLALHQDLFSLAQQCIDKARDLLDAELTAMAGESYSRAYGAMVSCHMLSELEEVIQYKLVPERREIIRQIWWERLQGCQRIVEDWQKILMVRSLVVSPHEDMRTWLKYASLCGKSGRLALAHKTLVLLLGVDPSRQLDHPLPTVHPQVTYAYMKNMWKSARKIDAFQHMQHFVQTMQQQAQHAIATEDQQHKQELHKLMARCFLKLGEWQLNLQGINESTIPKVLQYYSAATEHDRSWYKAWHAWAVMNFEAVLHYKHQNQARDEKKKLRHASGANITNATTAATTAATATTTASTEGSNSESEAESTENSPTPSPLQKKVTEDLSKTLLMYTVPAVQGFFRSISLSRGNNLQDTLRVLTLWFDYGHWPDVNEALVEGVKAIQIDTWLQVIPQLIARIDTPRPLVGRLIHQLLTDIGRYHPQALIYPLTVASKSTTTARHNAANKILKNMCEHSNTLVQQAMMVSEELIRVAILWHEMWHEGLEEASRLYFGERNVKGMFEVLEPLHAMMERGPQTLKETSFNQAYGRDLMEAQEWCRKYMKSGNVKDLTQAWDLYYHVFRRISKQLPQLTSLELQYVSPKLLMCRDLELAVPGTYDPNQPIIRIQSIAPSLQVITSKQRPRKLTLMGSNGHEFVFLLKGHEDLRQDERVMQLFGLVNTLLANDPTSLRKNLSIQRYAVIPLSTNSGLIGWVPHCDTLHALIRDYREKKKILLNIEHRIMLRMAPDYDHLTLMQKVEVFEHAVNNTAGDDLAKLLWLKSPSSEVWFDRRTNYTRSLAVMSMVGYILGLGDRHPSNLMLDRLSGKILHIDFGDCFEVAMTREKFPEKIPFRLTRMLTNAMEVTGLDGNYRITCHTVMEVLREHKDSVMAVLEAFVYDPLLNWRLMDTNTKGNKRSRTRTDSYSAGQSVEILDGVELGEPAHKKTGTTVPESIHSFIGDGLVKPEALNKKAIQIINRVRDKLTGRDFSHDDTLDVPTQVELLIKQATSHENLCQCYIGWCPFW

Tie2(h) = Tie2(h) (human, UniProt Q02763 771-1124, limits assumed)
Chain of Tie2(h) (Q02763 771-1124 limits assumed): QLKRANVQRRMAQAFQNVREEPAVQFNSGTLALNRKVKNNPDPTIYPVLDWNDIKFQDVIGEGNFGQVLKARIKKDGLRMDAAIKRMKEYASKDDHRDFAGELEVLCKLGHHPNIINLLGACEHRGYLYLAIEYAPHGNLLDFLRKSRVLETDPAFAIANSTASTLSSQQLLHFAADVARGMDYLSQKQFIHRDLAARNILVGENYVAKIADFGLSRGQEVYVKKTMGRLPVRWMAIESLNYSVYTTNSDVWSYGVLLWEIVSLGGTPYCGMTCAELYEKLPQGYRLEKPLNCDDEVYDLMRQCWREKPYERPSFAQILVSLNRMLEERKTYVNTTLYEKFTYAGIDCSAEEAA

BrSK2(h) = biological target: T2, BrSK2(h)
Txk(h) = biological target: T3, Txk(h)
ULK3(h) = biological target: T4, ULK3(h)
DAPK1(h) = DAPK1(h) (human, UniProt P53355 1-363, limits assumed)
Chain of DAPK1(h) (P53355 1-363 limits assumed): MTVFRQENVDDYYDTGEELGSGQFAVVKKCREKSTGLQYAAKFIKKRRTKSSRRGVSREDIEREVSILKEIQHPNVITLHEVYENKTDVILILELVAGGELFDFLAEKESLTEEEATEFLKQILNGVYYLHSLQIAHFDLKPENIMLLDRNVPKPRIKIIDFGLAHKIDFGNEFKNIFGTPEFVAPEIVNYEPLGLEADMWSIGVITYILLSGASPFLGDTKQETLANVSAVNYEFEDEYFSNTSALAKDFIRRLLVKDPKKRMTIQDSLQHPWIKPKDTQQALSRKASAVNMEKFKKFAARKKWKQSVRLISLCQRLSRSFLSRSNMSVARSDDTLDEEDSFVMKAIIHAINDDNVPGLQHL

ErbB4(h) = ErbB4(h) (human, UniProt Q15303 706-991, limits assumed)
Chain of ErbB4(h) (Q15303 706-991 limits assumed): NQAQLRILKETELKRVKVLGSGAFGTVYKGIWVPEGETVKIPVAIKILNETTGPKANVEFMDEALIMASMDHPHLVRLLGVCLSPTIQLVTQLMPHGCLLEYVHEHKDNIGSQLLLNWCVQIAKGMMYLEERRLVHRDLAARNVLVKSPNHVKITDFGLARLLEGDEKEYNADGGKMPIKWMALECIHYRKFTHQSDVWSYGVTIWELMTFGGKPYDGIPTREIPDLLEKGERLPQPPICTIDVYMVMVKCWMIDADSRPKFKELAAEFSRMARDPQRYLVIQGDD

| Binder | % activity, 100 µM (Abl(Y253F)(h)) | % activity, 100 µM (IKKα(h)) | % activity, 100 µM (mTOR(h)) | % activity, 100 µM (Tie2(h)) | % activity, 100 µM (BrSK2(h)) | % activity, 100 µM (Txk(h)) | % activity, 100 µM (ULK3(h)) | % activity, 100 µM (DAPK1(h)) | % activity, 100 µM (ErbB4(h)) |
| --- | --- | --- | --- | --- | --- | --- | --- | --- | --- |
| FAKLAARLYRKALARQLGVAA [MMI-0300] | 86% | 93% | 91% | 26% | 83% | 48% | 167% | 46% | 40% |
| KAFAKLAARLYRKALARQLGVAA [MMI-0400] | 78% | 87% | 93% | 21% | 86% | 37% | 147% | 36% | 0% |
